Experimental data: the RNAGym collection of RNA variant scans (doi:10.7554/elife.80360)

B1: Hammerhead Ribozyme (parent)
chain: ACCGGAUGUGCUUUCCGGUCUGAUGAGUCCGUGAGGACGAAACAG

Variants of: B1
Assay: self-cleavage, relative activity (ratio to wild type); higher = more cleavage; co-transcriptional

Variant	self-cleavage
U21G G35A	0.28
C2G U28C	0.262
G8U C38U	0.893
G25A G45A	0.336
G25A G45U	0.45
U13G C29G	0.581
C3A C16A	0.596
C3A C16U	0.557
C16U C20A	0.524
U19A C30A	0.294
A6C U7A	0.311
C11G G18U	0.725
U13G C43U	0.596
G18C A44G	0.643
C3U U13A	1.1
G8A U9G	0.85
G22A G36A	0.361
U28G G39U	0.32
G36U G39A	0.352
G36U G39U	0.333
G35U A40G	0.342
A6U C29U	0.451
G5C C20G	0.265
U28G A44U	0.397

Variant	self-cleavage
U19A G33U	0.398
G10A U28G	1.15
A26G A37C	0.252
C11U G25C	0.248
C15A C16U	0.647
A1U A34C	0.492
G25A A26C	0.339
U12C G35A	0.737
C16G A37G	0.533
A1U G18C	0.39
C16U C38U	1.03
C15A U24A	0.875
G17C A37G	0.355
C20G G39C	0.321
G10A U13A	1.72
U24A C30U	0.785
G4A C30A	0.379
G10A G27A	0.94
U13G G36U	0.658
U13G G36A	0.628
G31U G35A	0.879
C15A C30G	0.557
A23C G36A	0.412
G36U A40C	0.43

Variant	self-cleavage
G4U G5U	0.359
U32A C43G	0.484
U12A G25C	0.224
G5A C43G	0.312
U7C U32G	0.626
G17A U28G	0.567
U19G A34C	0.349
G17U A40C	0.449
U14C U19A	0.362
C2A G5U	0.319
C3U A26C	0.394
G17A A26G	0.297
G4C G18C	0.251
U19C G22U	0.267
C15U A40G	0.269
A37G G39U	0.307
G25A C43A	0.294
G4C A6C	0.251
U24A G31A	1.15
C15G A37U	0.367
G18A U24G	0.678
G10C C11U	1.18
G8A C43U	0.381
C16G C30U	0.899

Variant	self-cleavage
U21C U28A	0.573
U28C A34C	0.684
A40C C43G	0.33
A1U G17U	0.357
U19A A44U	0.262
C29G C38U	0.703
A34G C38A	0.349
A34G C38U	1.13
G10A A41C	0.306
U7G A23C	0.243
U28C C29A	0.688
C15U U24C	0.812
U13G G31C	0.943
U19G G22U	0.304
U9A C43A	0.333
U24G G39U	0.303
C11G A41U	0.382
G33U A41U	0.361
G4U G17A	0.316
U19A G39A	0.297
C2A A26C	0.328
U12G U28C	1.02
U14C C29U	0.709
U24G G27A	0.504

Variant	self-cleavage
G36U G45U	0.441
C11A G35C	0.887
C3U U19A	0.385
U21A G35A	0.52
G8U G27U	0.554
U32G A41C	0.459
U9A U13C	1.37
C15G U32G	0.574
G4A G31C	0.594
G8U G36C	0.885
C20G G25C	0.503
G31U	0.966
U12G G17A	0.738
U19C A37G	0.41
U32G A42C	0.275
C2A C16U	0.554
U19G A37C	0.331
G35U A41G	0.33
U7A A44U	0.375
G39C A42C	0.355
C11A U32A	1.4
G4C A41G	0.255
C15A A42G	0.264
U9C C11G	0.944

Variant	self-cleavage
G5U A6C	0.336
C15A G39A	0.337
U19A A37C	0.43
G4U G27A	0.312
G8C U24C	0.769
G31U A44C	0.564
C30U G45A	0.606
U12C A23G	0.37
U13C G45A	0.878
G17A U19A	0.386
U32C C38A	0.691
G27A G36A	0.401
G5C G35C	0.324
U13A A41U	0.355
U28A A37U	0.895
C3U G39A	0.309
G10U U19G	0.435
C16G U21A	0.349
A42C G45A	0.539
U13A C16G	1.27
G17U U32G	0.73
G4U G10U	0.558
A23U G45C	0.42
C20G U32G	0.28

Variant	self-cleavage
G25U G45A	0.306
A26G A44U	0.347
A1G U13C	1.87
G18C U19A	0.349
C20A G22C	0.349
G4A G18A	0.372
U24C A41G	0.358
U24G C38G	0.865
U9C C20U	0.504
C30G A44G	0.769
U12G C29U	0.541
A6U G45A	0.536
A1U C20A	0.37
C11U U14G	0.765
G31A G39A	0.356
G35U A44C	0.384
G35A A37G	0.58
G31C U32C	0.773
A1U C30G	0.414
C16G A41U	0.393
G4U A41U	0.308
U19G	0.437
U7G U13G	1.67
